Source: patent publication US12371675B2, “Process and microorganism for synthesis of adipic acid from carboxylic acids” (THE GOVERNING COUNCIL OF THE UNIVERSITY OF TORONTO, priority 2015, dated 2025)

Legend:
[1] = In vitro reductase activity of purified EREDs, NADH oxidation at 340 nm; assay type: biochemical
Procedure: (§1) The C═C reducing activity of EREDs was examined. Enzyme activity of purified EREDs was measured spectrophotometrically in 96-well plates by following incubation for 3-5 min at 30° C. in the anaerobic chamber as described in M. Buhler, H. Simon, Hoppe-Seyler's Zeitschrift fur Physiologische Chemie 1982, 363, 609-625. Buffers and reagents were degassed and sparged with Ar. Reaction mixture contained potassium phosphate (100 mM and pH 7.0), NADH (0.5 mM), indicated substrates, and proteins (0.1-50 μg) in a final volume of 200 μL. Enzyme reactions were monitored by following the decrease in absorbance at 340 nm (ε340 nm=6,220/M·cm) due to oxidation of NADH to NAD+.
(§2) For in vitro biochemical characterization, enzyme activities of purified EREDs were measured with 2-hexenedioic acid, cis-cis-muconic acid, trans-trans muconic acid, trans-cinnamic acid, trans-2-methyl-2-butenoic acid, trans-2-butenoic acid, acrolein, 2-cyclohexen-1-one, and 3-methyl-2-cyclohexenone. […] [Feng, J. et al. Discovery and Characterization of BlsE, a Radical S-Adenosyl-L-methionine Decarboxylase Involved in the Blasticidin S Biosynthetic Pathway. PLoS ONE 8 (2013)].

[2] = Oxygen tolerance (residual activity) of purified EREDs on storage; assay type: physicochemical; conditions: for retained initial activity, storage in the absence of oxygen / retained initial activity, storage in the presence of air: three days; for retained initial activity, storage in the absence of oxygen: 4° C.
Procedure: Purified EREDs were placed in 5 mL glass tubes tightly capped with air-tight rubber stoppers. Anaerobic tubes were filled with anaerobic gas mixture (80% N2, 10% H2, and 10% CO2) and aerobic tubes were filled with atmospheric air. The tubes were kept on ice for a week and a small aliquots of EREDs (5 ul) were withdrawn by a syringe every day to measure residual activity in a reaction mixture containing 100 mM potassium phosphate buffer (pH 7.0), 0.5 mM NADH, indicated substrates (0.25 mM 2-hexenedioic acid for EREDBC and 0.75 mM cinnamic acid for EREDCA, and protein (1 μg) in a final volume of 200 μL.

[3] = In vitro reductase activity of purified EREDs, NADH oxidation at 340 nm; assay type: biochemical; conditions: for activity against 2-hexenedioic acid: purified enzyme, anaerobic, NADH, aqueous buffer
Procedure: as §1, §2
To increase the dissolved substrate concentration, 2-hexenedioic acid was dissolved in a reaction mixture containing […] (final concentration) isopropanol, and kinetic constants of EREDBC and EREDCA were determined.

[4] = Whole-cell biotransformation of muconic acid by E. coli expressing EREDs; assay type: cell-based; conditions: 0.7 mM, 24-hr incubation
Procedure: After a 24-hr incubation, no muconic acid or 2-hexenedioic acid were detected in the culture, and a 99% yield of adipic acid was obtained (FIGS. 8a, 8b, and 8c). […] The 3-hexenedioic acid-like compound appears to be an inefficient substrate for these EREDS. This is similar to the mutated 2,4-dienoyl-CoA reductases from E. coli, which catalyze hydrogenation of 2,4-dienoyl CoA into 3-enoyl CoA (Tu, X., Hubbard, P. A., Kim, J. J. P. & Schulz, H. Two distinct proton donors at the active site of Escherichia coli 2,4-dienoyl-CoA reductase are responsible for the formation of different products. Biochemistry 47, 1167-1175 (2008).).

[5] = purified enzyme, anaerobic, NADH

B1: EREDCA: 2-enoate reductase (ERED) from Clostridium acetobutylicum DSM 1731 (protein)
chain: MNKYKKLFEPIKIGKCEIKNRFALAPMGPLGLADSEGGFNQRGIDYYTERAKGGTGLIITGVTFVDNEVEEHGMPNCPCPTHNPVQFVRTGREMTERIHAYNSKVFLQMSGGFGRVTIPTNLGEFPPVAPSPIQHRWLDKTCRELTVDEIKSIVKKFGEGAFNAKRAGFDGVQIHAVHEGYLIDQFAISLFNHRTDEYGGSLENRLRFAREIVEEIKNRCGEDFPVTLRYSPKSFIKDLRDGALPGEEFVEKGRDLDEGVEAAKLLVSYGYDALDTDVGSYDSWWWSHPPMYQEKGLYRKYAKLMKDTVDVPVICAGRMDDPDMALEAVENGTCDVISLGRPLLADPDYVNKLRSNKCKSIRPCISCQEGCMGRVQHYSMLNCAVNPQACKERANSLTPIIKSKKVLIVGGGVAGCEAARVLALRGHEPVLYEKSNRLGGNLIPGGAPSFKEDDIALADWYTNTLKELNVEVNLNSEVTKEQILNSKFDTVIVATGSTPKVFPLGDDEKVFTAAEVLLGQKDPGETTVVVGGGLVGCELALDLAKKGKKVTIVEALNKILALNGPLCSANSEMLQKLIPFNGIDVKANSKVKGYKNGLLKMETENGIEELPCDSVILSVGYKEENSLYKELEFEIPEIYLLGDARKVSNIMYGIWDAFEVANHI
Which “activity against trans-2-butenoic acid” value [1, 5] does the source give for B1 here?
Its value is 0.008 U/mg protein.

And the “activity against trans-cinnamic acid” value [1, 5]?
Its value is 3.5 U/mg protein.

What about the “residual activity, storage in the presence of air” value ([2]; one day, air (21% oxygen)) of the same molecule?
Its value is 30%.

What about the “retained initial activity, storage in the absence of oxygen” value [2] of the same molecule?
Its value is 19%.

What about the “retained initial activity, storage in the presence of air” value ([2]; air (21% oxygen)) of the same molecule?
Its value is “completely inactivated”.

What about the “activity against 2-hexenedioic acid” value [3] of the same molecule?
The value was “up to 0.05 U/mg protein”.

And the “yield of adipic acid from cis,cis-muconic acid” value [4]?
The value was 99%.

And the “yield of adipic acid from trans,trans-muconic acid” value [4]?
Its value is 99%.

B2: EREDBC: 2-enoate reductase (ERED) from Bacillus coagulans 36D1 (protein)
chain: MKYKKLFETVKIRNVELKNRYAMAPMGPLGLADAEGGFNQRGIEYYTARARGGTALIITGVTFVDNEVEEHGMPNVPCPTHNPVHFVRTSKEMTERIHAYDSKIFLQMSAGFGRVTIPTNLGEYPPVAPSPIPHRWLDKTCRELTVEEIHSIVRKFGDGAFNAKRAGFDGVQIHAVHEGYLLDQFAIAFFNKRTDAYGGPLENRLRFAREIVEEIKQRCGEDFPVTLRFSPKSFIKDWREGALPGEEFEEKGRDLDEGIEAAKLLVSYGYDALDVDVGSYDSWWWSHPPMYQKKGLYIPYARLVKEAVDVPVLCAGRMDNPDLALAALEDGACDIISLGRPLLADPDYVNKLRIGQVADIRPCLSCHEGCMGRIQEYSSLGCAVNPAACREKEAALTPALKKKRVLIAGGGVAGCEAARVLALRGHEPVIFEKSNRLGGNLIPGGAPDFKEDDLALVAWYEHTLERLGVEIHLNTALTKEEILAANVDAVLIATGSNPKILPLDGKNKVFTAEDVLLDKVDAGQHVVIVGGGLVGCELALNLAEKGKDVSLVEMQDKLLAVNGPLCHANSDMLERLVPFKGVQVYTSSKIVDTTEKTAVVDVDGELREIEADSIVLAVGYSAEKSLYEDLKFEVADLHVVGDARKVANIMYAIWDAYEVAANL
What does the source list for B2?
Activity [U/mg protein] trans-Cinnamic acid [1.0 mM] ([1]; 1.0 mM, titrated with 1N NaOH): 0.39 ± 0.001 U/mg protein; Activity [U/mg protein] Acrolein [15 mM] ([1]; 15 mM): 0.036 ± 0.005 U/mg protein; Activity [U/mg protein] trans-2-Butenoic acid [50 mM] ([1]; 50 mM): 0.037 ± 0.010 U/mg protein; Activity [U/mg protein] 2-Cyclohexen-1-one [200 mM] ([1]; 200 mM): 0.08 ± 0.03 U/mg protein; Activity [U/mg protein] 3-Methyl-2-cyclohexenone [200 mM] ([1]; 200 mM): 0.13 ± 0.03 U/mg protein; activity against 2-cyclohexen-1-one [1, 5]: 0.08 U/mg protein; activity against 3-methyl-2-cyclohexenone [1, 5]: 0.13 U/mg protein; activity against acrolein [1, 5]: 0.037 U/mg protein; activity against trans-2-butenoic acid [1, 5]: 0.036 U/mg protein; activity against trans-cinnamic acid [1, 5]: 0.39 U/mg protein; retained initial activity, storage in the absence of oxygen [2]: 35%; retained initial activity, storage in the presence of air ([2]; air (21% oxygen)): 33%; Activity [U/mg protein] 2-Hexenedioic acid [29 mM] ([3]; 29 mM, dissolved in aqueous buffer): 0.09 ± 0.02 U/mg protein; Activity [U/mg protein] 2-Hexenedioic acid [35 mM] ([3]; 35 mM, dissolved in 0.25 mM isopropanol): 2.3 ± 0.04 U/mg protein; activity against 2-hexenedioic acid [3]: 0.09 U/mg protein; yield of adipic acid from cis,cis-muconic acid [4]: 99%; yield of adipic acid from trans,trans-muconic acid [4]: 99%
